The target in assay [1] is Chlamydomonas reinhardtii animal-like cryptochrome (CraCRY), wild type (Chlamydomonas reinhardtii). In words: SEC; dimer peak collected from SEC, kept in the dark, second round of SEC. For orientation: SEC sorts molecules by how far they enter the pores of the column.
Assay [2] shares this target. In words: SEC; concentration series, blue light 4 min; HEPES pH 7.4, 150 mM NaCl; Superdex 200 Increase 10/300, room temperature, in darkness; dimer fraction from peak areas.
Assay [3] concerns the target CraCRY Y373R (Chlamydomonas reinhardtii). The assay is described as follows: SEC; time-lapse dimerization under blue light (450 nm, 100 W/m^2); 6 mg/mL in HEPES pH 7.4, 150 mM NaCl; Superdex 200 Increase 10/300, room temperature, in darkness; dimer fraction from peak areas.
Assay [4] addresses CraCRY Y373E (Chlamydomonas reinhardtii). The assay is described as above.
The target of assay [5] is GST-fused ROC15 (GARP), the active domain of Rhythm Of Clock 15. In words: GST pull-down, SDS-PAGE band intensity ratio. Conditions: absence of reducing agents, read off a plot.
The mark [6] stands for this setting: lit (blue light), parent: est. 0.15.

Turning to “Chlamydomonas reinhardtii animal-like cryptochrome (CraCRY), wild type (natural protein)”, the stoichiometry N in assay [1] was determined as 2. Further, in assay [2], the dimer fraction (percent of elution peak area) came out at 20%.
As to CraCRY Y373R (natural protein), the dimer fraction (percent of elution peak area) in assay [3] stood at 50%.
In the case of CraCRY Y373E (natural protein), the dimer fraction (percent of elution peak area) in assay [4] stood at 50%.
As to “Chlamydomonas reinhardtii animal-like cryptochrome (CraCRY), wild type Y373W”, the response turned out to be 0.045 in assay [5] (dark, parent: est. 0.03) and 0.85 in assay [5] (setting [6]).
For “Chlamydomonas reinhardtii animal-like cryptochrome (CraCRY), wild type Y373W; N395C” the same measures were 0.05 and 0.58.

As usually defined, the stoichiometry N is a count of units in the complex or per binding partner.
